From US20240287172A1 (SCIRHOM, published 2024)

What follows are binders tested against T1, hiR2-FL-I566E-T7 (human, UniProt Q6PJF5 1-856) (assay: FACS, MEF-DKO cells, 3 µg/ml).
T1 construct: on MEF-DKO cells; also called hiR2-FL-1566E-T7
T1 sequence: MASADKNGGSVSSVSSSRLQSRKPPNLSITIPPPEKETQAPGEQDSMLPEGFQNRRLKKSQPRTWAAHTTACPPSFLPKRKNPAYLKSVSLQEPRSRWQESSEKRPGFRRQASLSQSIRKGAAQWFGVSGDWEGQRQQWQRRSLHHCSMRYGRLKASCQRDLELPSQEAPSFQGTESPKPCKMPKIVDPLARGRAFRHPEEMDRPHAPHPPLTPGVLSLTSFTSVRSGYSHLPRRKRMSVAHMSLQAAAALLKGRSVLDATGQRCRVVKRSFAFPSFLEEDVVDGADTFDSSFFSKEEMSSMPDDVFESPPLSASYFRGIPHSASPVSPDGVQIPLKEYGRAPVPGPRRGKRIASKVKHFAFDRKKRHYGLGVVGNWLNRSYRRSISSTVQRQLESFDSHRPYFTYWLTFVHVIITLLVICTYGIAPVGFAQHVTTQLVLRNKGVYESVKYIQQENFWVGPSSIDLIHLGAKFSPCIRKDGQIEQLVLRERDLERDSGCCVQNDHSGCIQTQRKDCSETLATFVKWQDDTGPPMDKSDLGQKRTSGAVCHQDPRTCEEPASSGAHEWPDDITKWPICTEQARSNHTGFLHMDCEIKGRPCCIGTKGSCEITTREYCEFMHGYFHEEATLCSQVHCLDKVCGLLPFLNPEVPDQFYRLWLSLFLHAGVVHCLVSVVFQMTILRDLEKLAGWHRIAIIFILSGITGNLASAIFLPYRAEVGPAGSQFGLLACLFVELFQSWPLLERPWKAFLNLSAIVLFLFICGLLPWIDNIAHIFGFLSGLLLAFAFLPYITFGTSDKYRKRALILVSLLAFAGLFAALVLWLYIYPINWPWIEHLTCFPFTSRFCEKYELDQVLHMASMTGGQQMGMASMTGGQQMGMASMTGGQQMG
Source text: In brief, immortalized MEF-DKO hiR2-FL-G563D-T7, MEF-DKO hiR2-FL-A564P-T7, MEF-DKO hiR2-FL-1566E-T7, MEF-DKO hiR2-FL-D569E-T7, MEF-DKO hiR2-FL-E579K-T7, MEF-DKO hiR2-FL-Q580N-T7, MEF-DKO hiR2-FL-A581S-T7, MEF-DKO hiR2-FL-R582A-T7, MEF-DKO hiR2-FL-S583G-T7, MEF-DKO hiR2-FL-G587N-T7, MEF-DKO hiR2-FL-F588H-T7, MEF-DKO hiR2-FL-L589P-T7, MEF-DKO hiR2-FL-E594V-T7, MEF-DKO hiR2-FL-K596T-T7, MEF-DKO hiR2-FL-S607R-T7, MEF-DKO hiR2-FL-T612S-T7, MEF-DKO hiR2-FL-E617D-T7, MEF-DKO hiR2-FL-H620R-T7, MEF-DKO hiR2-FL-L636M-T7, MEF-DKO hiR2-FL-K638D-T7, MEF-DKO hiR2-FL-1771F-T7, MEF-DKO hiR2-FL-1825V-T7, MEF-DKO hiR2-FL-1828V-T7, MEF-DKO hiR2-FL-N829R-T7, MEF-DKO hiR2-FL-W830C-T7, MEF-DKO hiR2-FL-P831E-T7, MEF-DKO hiR2-FL-I833C-T7, MEF-DKO hiR2-FL-H835F-T7, MEF-DKO hiR2-FL-F8391-T7, MEF-DKO hiR2-FL-S843D-T7, MEF-DKO hiR2-FL-Q853A-T7, MEF-DKO hiR2-FL-V854Q-T7 and MEF-DKO hiR2-FL-R844K-T7 cells were harvested with 10 mM EDTA in PBS, washed and resuspended in FACS buffer (PBS, 3% FBS, 0.05% sodium azide), and seeded in Nunc U-bottom 96-well plates (Thermo Fisher Scientific, USA) at approximately 1×10⁵ cells per well. To pellet cells and remove supernatants, the plates were centrifuged at 1,500 rpm and 4° C. for 3 minutes. For primary staining, cells were resuspended in 100 μl per well of either FACS buffer alone (controls) or the purified antibodies 3, 5, 16, 22, 34, 42, 43, 44, 48, and 50 of the invention at 3 μg/ml in FACS buffer and incubated on ice for 1 hour. Afterwards, plates were centrifuged at 1,500 rpm and 4° C. for 3 minutes and washed twice with 200 μl per well of FACS buffer. For secondary staining, cells were spun down and resuspended in 100 μl per well of PE-conjugated goat anti-mouse IgG F(ab′)2 detection fragment (Dianova, Germany) diluted 1:100 in FACS buffer. Protected from light, the cell suspensions were incubated on ice for 1 hour. Plates were then centrifuged at 1,500 rpm and 4° C. for 3 minutes and washed three times with 200 μl per well of FACS buffer. Finally, cells were resuspended in 150 μl per well of FACS buffer and analyzed using a BD Accuri™ C6 Plus flow cytometer (Becton Dickinson, Germany).

| Binder | loss of binding vs wild type [%] |
| --- | --- |
| antibody 5 (antibody, V domains shown, mouse IgG, kappa light chain; also called clone #5; purified antibody 5) VH: QVTLKESGPGILQPSQTLSLTCSFSGFSLSTFGMGVGWIRQPSGKGLEWLAHIWWDDEKYYNSALKSRLTISKATSKNQAFLKIANVDTADTATYYCARISNYGSNYWYFNVWGTGTTVTVSS VL: QVVLTQSPALMSASPGEKVTMTCSAGSSVSCMYWYQQKPGSSPRVLIYDTSNLASGVPARFTGSGSGTSYSLTISRMEAEDAASYYCQQWNSYPLTFGAGTKLELK | ≥ 95 |
| antibody 42 (antibody, V domains shown, mouse IgG, kappa light chain; also called clone #42; purified antibody 42) VH: QVTLKESGPGILQPSQTLSLTCSLSGFSLSTFGRGVGWIRQPSGKGLEWLAHIWWDDEKYYNPALKSRLTISKDTSKNQVFLRIANVDTADTATYYCARIQNYGSNYWYFDVWGTGTTVTVSS VL: LIVLTQSPAIMSASPGEKVTMTCGATSRISYMFWYQQKPGSSPRVLIYDTSNLASGVPVRFSGSGSGTSYSLTISRVEAEDVATYYCQQWNSYPLTFGAGTKLELK | ≥ 60 |
| antibody 44 (antibody, V domains shown, mouse IgG, kappa light chain; also called clone #44; purified antibody 44) VH: QVTLKESGPGILQPSQTLSLTCSFSGFSLSTFGMGVGWIRQPSEKGLEWLAHIWWDDDKYYNPALKSRLTISKDTSKNQIFLKITNVDTAETATYYCSRIGNYGSNYWYFDVWGTGTTVTVSS VL: QIVLTQSPAVMSASPGEKVTMTCTASSSVYYMYWYQQTPGSSPRLLIYDTSNLASGVPVRFSGSGSGTSYSLTISRMEAEDAATYYCQQWNTYPLTFGAGTKLELK | ≥ 60 |
| antibody 43 (antibody, V domains shown, mouse IgG, kappa light chain; also called clone #43; purified antibody 43) VH: QVALKESGPGILQPSQTLSLTCSFSGFSLSTFGMGVGWIRQSSGKGLEWLANIWWDDDKYYNPALKSRLTISKDASKNQAFLKIANVDTADTATYYCARIGNYGSNYWYFDVWGTGTTVTVSS VL: QIVLTQSPAIMSASPGERVTMTCSANSRISYMYWYQQKPGSSPRLLIYDTSNLASGVPVRFSGSGSGTSYSLTISRMEAEDAATYNCQQWSSYPLTFGAGTKLELK | ≥ 60 |
| antibody 22 (antibody, V domains shown, mouse IgG, kappa light chain; also called clone #22; purified antibody 22) VH: QVTLKESGPGILQPSQTLSLTCSFSGFSLSTFGMGVGWIRQPSGKGLEWLAHIWWDDEKYYNSALKSRLTISKATSKNQVFLKIANVDTADTATYYCARISNYGSNYWYFNVWGTGTTVTVSS VL: QVVLTQSPALMSASPGEKVTMTCSAGSSVSYMYWYQQKPGSSPRVLIYDTSNLASGVPARFTGSGSGTSYSLTISRMEAEDAATYYCQQWNSYPLTFGAGTKLELK | ≥ 60 |
| antibody 3 (antibody, V domains shown, mouse IgG, kappa light chain; also called clone #3; purified antibody 3) VH: QVTLKESGPGILQPSQTLSLTCSFSGFSLTTFAMGIGWVRQPSGKGLEWLAHIWWDGEKYNNPVLKSRLTISKDTSKNQVFLRIANVDTPDTATYYCARISSIYYIIDNWGQGTSVTVSS VL: DIVLTQSPATLSVTPGHSVSLSCRASQSISNNLHWYQKKSHESPRLLIKYVSQSISGIPSRFSGSGSGTDFTLSINSVETEDFGMYFCQQSYNWPLTFGAGTKLELK | ≥ 30 |
| antibody 34 (antibody, V domains shown, mouse IgG, kappa light chain; also called clone #34; purified antibody 34) VH: QVTLKESGPGILQPSQTLSLTCSFSGFSLSTFSLGVGWIRQSSGKGLEWLAHIWWDDEKYYNPALKSRLTISKDTSKNQVFLKIANVDAADTATYYCARAYYSKSYYALDYWGQGTSVTVSS VL: DIQMTQSPSSLSASLGERVSLTCRASQEISGYLSWLQQKPDGTIKRLIYAASTLDSGVPKRFSGSRSGSDYSLAISSLESEDFADYYCLQYANFPFTFGSGTKLEIK | ≥ 60 |
